Laboratory results published in US20160108097A1.

Experiments:
Experiment in all cases: cell-based or functional assay
[1] = molecular target: Env of HIV-1RF virus (HIV-1 RF)
[2] = molecular target: GRFT-resistant envelope Du156R18 (R)
[3] = molecular target: GRFT-resistant envelope Du179 GRFT c17 (R)
[4] = molecular target: HIV-1 subtype A envelope Q168.a2 (HIV-1 subtype A)
[5] = molecular target: HIV-1 subtype A envelope Q23.17 (HIV-1 subtype A)
[6] = molecular target: HIV-1 subtype B envelope CAAN5342.A2 (HIV-1 subtype B)
[7] = molecular target: HIV-1 subtype B envelope JR-FL (HIV-1 subtype B)
[8] = molecular target: HIV-1 subtype B envelope PVO.4 (HIV-1 subtype B)
[9] = molecular target: HIV-1 subtype B envelope QH0692.42 (HIV-1 subtype B)
[10] = molecular target: HIV-1 subtype C envelope CAP206.8 (HIV-1 subtype C)
[11] = molecular target: HIV-1 subtype C envelope COT6.15 (HIV-1 subtype C)
[12] = molecular target: HIV-1 subtype C envelope DU151.2 (HIV-1 subtype C)
[13] = molecular target: HIV-1 subtype C envelope Du156.12 (HIV-1 subtype C)
[14] = molecular target: HIV-1 subtype C envelope Du179.14 (HIV-1 subtype C)

griffithsin (GRFT), native domain-swapped dimer, sequence (P84801 whole entry X31A, the tested form may be a part): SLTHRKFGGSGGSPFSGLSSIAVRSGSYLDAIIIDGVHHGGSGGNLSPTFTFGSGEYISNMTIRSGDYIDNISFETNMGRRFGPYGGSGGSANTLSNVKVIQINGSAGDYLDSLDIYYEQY

**Q.** With “griffithsin (GRFT), native domain-swapped dimer (from UniProt P84801 1-121)” as the substance, how does the Anti-HIV EC50 (XTT cytopathicity assay, HIV-1RF, CEM-SS cells) [1] read?
**A.** 0.0138 nM

**Q.** What about the IC50 (pseudovirus neutralization, JC53bl-13 cells) [2] of the same substance?
**A.** 9.14 nM

**Q.** What about the fold reduction in activity between the WT (Du156.12) and R viruses [2] of the same substance?
**A.** 282 fold

**Q.** What about the fold reduction in activity between the WT (Du179.14) and R viruses [3] of the same substance?
**A.** > 82 fold

**Q.** What about the IC50 (pseudovirus neutralization, JC53bl-13 cells) [4] of the same substance?
**A.** 3.8 nM

**Q.** What about the IC50 (pseudovirus neutralization, JC53bl-13 cells) [5] of the same substance?
**A.** 1.19 nM

**Q.** What about the IC50 (pseudovirus neutralization, JC53bl-13 cells) [6] of the same substance?
**A.** 7.34 nM

**Q.** And the IC50 (pseudovirus neutralization, JC53bl-13 cells) [7]?
**A.** 0.922 nM

**Q.** What about the IC50 (pseudovirus neutralization, JC53bl-13 cells) [8] of the same substance?
**A.** 0.037 nM

**Q.** And the IC50 (pseudovirus neutralization, JC53bl-13 cells) [9]?
**A.** 0.0473 nM

**Q.** And the IC50 (pseudovirus neutralization, JC53bl-13 cells) [10]?
**A.** 2.14 nM

**Q.** And the IC50 (pseudovirus neutralization, JC53bl-13 cells) [11]?
**A.** 0.734 nM

**Q.** And the IC50 (pseudovirus neutralization, JC53bl-13 cells) [12]?
**A.** 1.49 nM

**Q.** And the IC50 (pseudovirus neutralization, JC53bl-13 cells) [13]?
**A.** 0.0324 nM

**Q.** And the IC50 (pseudovirus neutralization, JC53bl-13 cells) [14]?
**A.** 0.606 nM
